Paper PMC9040003 (Science (New York, N.Y.), 2022)

Columns and labels:
Type in all cases: binding, Arabidopsis thaliana
[1] = test system: HERK1 ectodomain (6×His-tagged); settings: 6×His-tagged ectodomain purified from insect cells; biotinylated peptide
[2] = test system: HERK1 ectodomain (MBP-tagged); settings: MBP-tagged ectodomain purified from Escherichia coli; biotinylated peptide
[3] = test system: ANJ ectodomain (6×His-tagged); settings: 6×His-tagged ectodomain purified from insect cells; biotinylated peptide
[4] = test system: ANJ ectodomain (MBP-tagged); settings: MBP-tagged ectodomain purified from Escherichia coli; biotinylated peptide
[5] = test system: FER ectodomain (6×His-tagged); settings: 6×His-tagged ectodomain purified from insect cells; biotinylated peptide
[6] = test system: FER ectodomain (MBP-tagged); settings: MBP-tagged ectodomain purified from Escherichia coli; biotinylated peptide

B1: RALF16: RALF (rapid alkalinization factor) peptide, pollen tube–specific, Arabidopsis (peptide)
peptide: RTLGYGSIKGDRIPACGYKNPNSCVKQPVNHYHRGCEKITRCARDAARYTESFNVDDDESPIINLH
modifications: also: biotin, position not given here
bind: binding to HERK1 ectodomain (pull-down) [1] | binding to HERK1 ectodomain (pull-down) [2] | binding to ANJ ectodomain (pull-down) [3] | binding to ANJ ectodomain (pull-down) [4] | binding to FER ectodomain (pull-down) [5] | binding to FER ectodomain (pull-down) [6]
